experiment: soluble on expression in E. coli; label from the status in PepcDB or PDB records

| Sequence | soluble on expression in E. coli |
| --- | --- |
| MGSDKIHHHHHHMGTKKNFVIDTNVILHDYNCLKNFQENDIHLPLVVLEELDKFKKGNEQINFNAREFVRELDLLTSDELFSQGVSLGEGMGRLFVVPGNVDAPKVHESFPVKKPDHLILAAVEYLAAKYPKTPAILVTKDVNLRMKARSIGITSEDYITDKVSNVDIFEKSNEIFENVDPALIDRIYSSKEGIDLSEFDFKDVIHPNECFVLKSDRNSVLARYNPFTHSICRVTKGRNYGIEPRNAEQSFAFEILNDPNVKLVALTGKAGTGKTLLALAAALGKLTDYKQVLLARPVVALSNKDIGFLPGDAQEKVAPYMQPLFDNLNVIKRQFAANSTEVKRIEDMQKSEQLVIEALAFIRGRSLSEMYCIIDEAQNLTPNEIKTIITRAGEGTKMVFTGDIQQIDQPYLDSQSNGLVYMIDRMKDQNIFAHVNLVKGERSQLSELASNLL | not soluble |
| MSPHPQPAPEPVIQYIASCKLPTPWGEFVMHGFEEESGQEHVALTLGEVGDGLPVLARLHSECLTGDALFSLRCDCGFQLEAAMEAISKAGRGALLYLRQEGRGIGLINKIRAYKLQDGGADTVEANERLGFPADMRDFRIARHMLAHLGIGSVKVMTNNPRKLATLEAAGIAVVERVPLQVGRNPYNDRYLDTKAAKLGHMLLKLEHHHHHH | soluble |
| MNFKPIKPKKISTQIAEQIRSSILAGEFTPGEKLPPERELAEMFGVSRPSVREALNILAAAGLVESYQGGGTIVKSLMDAASGPPLSEIIKVEQERALDVIEVRKCMEAWTAYYAAQRALPDDVRKLEGIVWNMEANLNGLKPSEDLDANFHIVIARSTHNVVWLHLMQTIFEAMKEFQRSVWRAVYLTEEDHRTLFAHHKAIFEAIRDKDCERARNAMLGHLTFAEKRSSIYVNQSRQDR | not soluble |
| GMASSFLEEVDRLITLSGITFHASGTGTPELIKIYQDALGNEFPETYKLFLEKYGTLTFNGVSFYGISKRGLSAASIPDVKFATEQARTFGDINKEMIMIKNSGYGSIFSIDTSIIGSEGEPVIVETNLSFKDNTEKKVVANSFGEFLLEEIELSLTDLG | soluble |
| MTDNDAVSAAFAHMRQEAKKRTGTVPNLNRPLPKASKSLADNDATPAVPKQRGMATGPDGRRRRRSYSVQRAGSILSDEIKKRGWRKEIAGGWVNSHWDDLVGAQIAAHTKVEMFKDKALFITCDSTAWATNLRMMQRIILRSISEQIGPDIIVELKIFGPKAPSWRHGPLHVKGRGPRDTYG | not soluble |
| MTASDSAADETGDLRHEAHAWVISLTSGRVTQGDARAFRQWCARSPQHLRAFVEARDLWQALGSAAALPLEPPAVAQIAPRRFGRRWFVGGALAASVALFVLRPSLLDHGLGGADYVTAVGEQRQVQVSGETRIEMNTRTRLNVRRNQEQQETIELLGGEAEIIASHPPQSSLRVMAGSAWLSASRARFNVRSSGDVCVVTCLEGSVRLEHLGQRLDLQAGQQLTFDERRNGPPVPFDVAEVMAWRERMLVFNDVPLATVIDEINRYRPGMLLLLDKALGRRRVQARFSLDQLADVATLIRDAYGIEVTRLPGGVVLLG | not soluble |
| MKIGIIGAMQQEVAILKDLIEDVQEVNQAGCTFYSGQIQGVDVVLLQSGIGKVSAALGTALLISQYAPDVVINTGSAGGFDASLNVGDVVISSEVRHHDADVTAFGYEIGQMAGQPAAFKADEKLMTVAEQALAQLPNTHAVRGLICTGDAFVCTAERQQFIRQHFPSVVAVEMEASAIAQTCHQFKVPFVVVRAISDVADKESPLSFEEFLPLAAKSSSAMVLKMVELLK | soluble |
| MGSDKIHHHHHHMSQINASASGTYAFDDQFKVNRLGYGTMQLTGEGTWGPYDDPNNAVSVIKKAVDLGINFFDTADSYGPWFADRYLAEGLKSASNRDEIFISDKVGQTRQGPGVWTPHGEPNYLRQQVEVSLMTLGIDHEDLLFLHRIDSHFSVAEQVGELKKLQDEGKIKHIGLSQVTVGQIKEAQKYAKIDAVENLYNVSDHRDDDVLDYAESQHMAFVPWFPLNTEKLTGANSPLAKIANKYKASPAQIALAWLLKRSGNVLPIPGTSSVAHLEDNVAAASIKLSDDDFKAITNLGVSNR | not soluble |
| GSPGISGGGGGILVGSKMAASIRERQTVALKRMLNFNVPHVKNSPGEPVWKVLIYDRFGQDIISPLLSVKELRDMGITLHLLLHSDRDPIRDVPAVYFVMPTEENIDRLCQDLRNQLYESYYLNFISAISRSKLEDIANAALAANAVTQVAKVFDQYLN | soluble |
| MSSSPSLPSSASVPAAFDRAPVSGLPDNAIEIDALRKVYGGGKVALESLSLAIPRGSFFGLLGPNGAGKSTLINIMAGLVRKTSGRVRIWGNDIDTDERAARCAIGIVPQELSFDPFFTPREMLDVQAGLYGVPKAERRTLEILRAVGLEDKADAYSRTLSGGMRRRLLVAKAMVHSPPILVLDEPTAGVDIELRQQLWAYVRDLNARGTTVLLTTHYLEEAEELCDRIAIIDHGKVVVSEPTTTLLGRLDNKSLTLRLAQPLDAPPPALAALGAELRDPYHLVITYHPSSLPMARILDAARAGGLTIADLTTREADLEDVFLRLTSSHHRAQEIGLEHHHHHH | soluble |
| MSRRAGTPTAKKVTQLVNVEEHVEGFRQVREAHRRELIDDYVELISDLIREVGEARQVDMAARLGVSQPTVAKMLKRLATMGLIEMIPWRGVFLTAEGEKLAQESRERHQIVENFLLVLGVSPEIARRDAEGMEHHVSEETLDAFRLFTQKHGAK | soluble |
| MGSDKIHHHHHHMKTVNVHGFEASSKEEFQVIQSSLVKRIKLISDFKEEDIKLCAGVDLAYWTKGEKQYGVCCIIVIDYNTGEIIEKAYDYGEIEVPYMPGFLAFRELPLVIKTVKKLKNEPDIFMFDGNGYLHYNHMGIATHASFFLNKPTIGVAKSYLKVAGVDFEMPESFEGAFKDIVINEEVYGRVLRTKKDVKPIFVSCGNYIDLETCTKICSKLINNDSRLPITVRLADLETHKRRSELS | not soluble |
| MGSDKIHHHHHHMQGTQQSLPLAVVRGQAMTEMPQDLFIPPEALEVFLESFEGPLDLLLYLIRKQKLDVVDLPISQITAQYLEYIAMLTQARIELASDYLVMAATLAEIKSRLLLPRMVAEDEVEEDPRAQLIRQLKAYEVIKEASQKIDDLPRLERDVFQATAAPSPNIKPLVIPPDVSLFEIARAFGDVLKRIDAYEDHHVKREQLSTRERMSQILAMLNSEDFTPFERLFSVEEGRAGVVVTFLALMELVKELLVELYQTEPFSTIYVKAY | not soluble |
| MGSDKIHHHHHHMTSSRSRYLSVMGRELHVTEWGDEAAPALVMWHGLARTGRDFDTLAAHFCDRYRVVCPDTLGRGLSGWSRVPRRDYTLAAYMKHALELLGLLGIDRVTWIGTSMGGALGMLLAAGPLAGRMDRLVMNDIGPTLNPVAVERIRNYLAQHPSFRTMTEFEAYLRQVYRPYGFQTDLEWRRMTETSARRRGDGRITPHYDPAVMRVFAETAGDYEAWGEYDLITCPTLVLRGAESDLLLPEVAQEMTRRGPKARLVTVAGCGHAPSLNVPEQIGVIEDFLA | not soluble |
| MSLARFFQPKKHSTLDTKHQPVTIERLDHQGSGLAFLHKKPLFVDGALPGEEVLIQLTENKSKYARGQLIKVLKPSAERVAPFCAHYAQCGGCDLQHLDRAGQIHHKQQALSQLMVKFAGQSLALSAPVCSDDQGYRRRARLSLMWDKKTQQLQLGFRRKQSKAIVNVTHCPVLEPSLNALLPDLNALLSEWSQPERLGHVELVKGDNTRVLVLRHLGALIEQDQQRLTDFASQNQLTLYLMLEAGELQHVQGEAPYCEETGSRLSFLPSHFIQVNRAVNQHMVVQALNWLEVSPQERVLDLFCGLGNFTLPLAKQAQAVVGVEGVDEMVQHATHNAKLNQINNVAFYQANLEQDMTSASWAQQKFAKVLLDPARAGAEGIVDQLSALGAKRVVYVSCNPATLARDSQSLLSQGFRLEKLGMLDMFPHTSHLESMALFVKKGEGHHHHHH | soluble |
| MQGQIIKALAGFYYVESDGQVYQTRARGNFRKKGHTPYVGDWVDFSAEENSEGYILKIHERKNSLVRPPIVNIDQAVVIMSVKEPDFNSNLLDRFLVLLEHKGIHPIVYISKMDLLEDRGELDFYQQTYGDIGYDFVTSKEELLSLLTGKVTVFMGQTGVGKSTLLNKIAPDLNLETGEISDSLGRGRHTTRAVSFYNLNGGKIADTPGFSSLDYEVSRAEDLNQAFPEIATVSRDCKFRTCTHTHEPSCAVKPAVEEGVIATFRFDNYLQFLSEIENRRETYKKVSKKIPK | not soluble |
| MGSDKIHHHHHHMDLWKLYQPGTPAAIVAWGQLGTAHAKTTYGLLRHSRLFKPVCVVAEHEGKMASDFVKPVRYDVPVVSSVEKAKEMGAEVLIIGVSNPGGYLEEQIATLVKKALSLGMDVISGLHFKISQQTEFLKIAHENGTRIIDIRIPPLELDVLRGGIYRKKIKVVGVFGTDCVVGKRTTAVQLWERALEKGIKAGFLATGQTGILIGADAGYVIDAVPADFVSGVVEKAVLKLEKTGKEIVFVEGQGALRHPAYGQVTLGLLYGSNPDVVFLVHDPSRDHFESFPEIPKKPDFEEERRLIETLSNAKVIGGVSLNGGFETDLPVYDPFNTDDLDEMLERAMVW | soluble |
| THILTLTSGFHLWSHTENSGKKSKIIAVHGGPGETHESFETLPLGVPNAEITSYDQLGSWYSDQPDFSDPKLAKKYLRIEYFVNELEEVRRQLEYDKFILLGYSWGAMIALEYALKYPGNLDKLVIVGMSDRESDFTDRMKDEVAKVLSKDEAKYVFTEAKKGELDDPLFNQFMEKFYNDYYSRFSKSQSKHAIDISNYQVANYMMGTNPFHTEGMMSGWNVSDKLYRIKTPTLILVGDQDMISPKKARVMADKLPNGKLEIIPDATHVSLRDNPEYFFQQLNQFLTN | not soluble |
| MSLKEVIFVLLNEFADWEGAFIAACLNQGVMPGSPVPYKVKTLSITKEPVSSIGGFRVLPDYDLKDMPEDYAGLILIGGMSWFSPEAELIAPLIEKAIKDKKVVGGICNASVFLAMHGFLNNVKHTSNTIDYLKQHVGERYTGDSNYVDQQAVRDGKIITANGTGQLEFCREILYALEADTAEAIEKSYLFYKNGEGHHHHHH | soluble |
| MNPGKPMPLVVHGWTIFAHPLFLAQIEVLIQQVEAHKQKDPVGFVKKNASKRLAAITKLAFDIILQDPARPEYRQGGTLGDDYKHWFRAKFFQQYRLFFRYHTLSKVIVFAWVNDEDTRRAYESSDDAYRMFRKMLENGLPPDDWNQLLAEARAEGQRLQQFAARWW | not soluble |
| EEIDCNDKDLFKAVDAALKKYNSQNQSNNQFVLYRITEATKTVGSDTFYSFKYEIKEGDCPVQSGKTWQDCEYKDAAKAATGECTATVGKRSSTKFSVATQTCQITPAEGPVVTAQYDCLGCVHPISTQSPDLEPILRHGIQYFNNNTQHSSLFMLNEVKRAQRQVVAGLNFRMTYSIVQTNCSKENFLFLTPDCKSLWNGDTGECTDNAYIDIQLRIASFSQNCDIYPGKDFVQPPTKICVGCPRDIPTNSPELEETLTHTITKLNAENNATFYFKIDNVKKARVQVVAGKKYFIDFVARETTCSKESNEELTESCETKKLGQSLDCNAEVYVVPWEKKIYPTVNCQPLGMISLMKRPPGFSPFRSSRIGEIKEETTSHLRSCEYKGRPPKAGAEPASEREVS | not soluble |
| MNNKYQMGVSTNLKYKGISLGIDFDIRQGGVMYSRTKDINYFTGNAIQTAYNDRNPLIVPNSVNKIVNGENVTYVENTTPITSSNIYKYWGDGGSDMGSCFLVDKSYVKLRSVVLGWDLPKRWLAKTPFQAVKVSAYGNNLFVWTPSSNTFIDPEMTSFGNDLEGNYGEYTANPSSRRFGFNLMVKF | not soluble |
